Source: patent US20240132625A1 (KOREA ADVANCED INSTITUTE OF SCIENCE AND TECHNOLOGY, published 2024)

B1: CV30 (antibody, V domains shown)
VH: EVQLVESGGGLIQPGGSLRLSCAASGVIVSSNYMSWVRQAPGKGLEWVSVIYSGGSTYYADSVKGRFTISRDNSKNTLYLQMNSLRAEDTAVYYCARDLDVSGGMDVWGQGTTVTVSS
VL: not shown
B2: homodimeric coiled-coil (HomoCC) (designed binder)
chain: DEEQRKVVEEDLKVLEHLRRVVERKEHLVRDAYEETFDDQQREVVREKLKVLEHLEKVIERDRHLSSRPGL

Columns and labels:
[1] = target: Receptor-binding domain of the SARS-CoV-2 spike protein (biotinylated, Acrobio system) (SARS-CoV-2, UniProt P0DTC2 319-541); assay: BLI
[2] = target: the molecule itself; assay: homodimerisation; method not stated (FIG. 2)

Binder | Kd [1] | Kd [2]
B1 | ≤ 0.01 nM | 
B2 |  | 7.6 µM
